This is an account of results in FireProtDB (doi:10.1110/ps.03220403).

Sequences and labels used below:
B1: P217C|V226C|G186C, O00095 (parent)
chain: MKFLQVLPALIPAALAQTSCDQWATFTGNGYTVSNNLWGASAGSGFGCVTAVSLSGGASWHADWQWSGGQNNVKSYQNSQIAIPQKRTVNSISSMPTTASWSYSGSNIRANVAYDLFTAANPNHVTYSGDYELMIWLGKYGDIGPIGSSQGTVNVGGQSWTLYYGYNGAMQVYSFVAQTNTTNYSGDVKNFFNYLRDNKGYNAAGQYVLSYQFGTEPFTGSGTLNVASWTASIN
B2: C236S, Q8NJY3 (parent)
chain: MLKSALLLGAAAVSVQSASIPTIPANLEPRQIRSLCELYGYWSGNGYELLNNLWGKDTATSGWQCTYLDGTNNGGIQWSTAWEWQGAPDNVKSYPYVGKQIQRGRKISDINSMRTSVSWTYDRTDIRANVAYDVFTARDPDHPNWGGDYELMIWLARYGGIYPIGTFHSQVNLAGRTWDLWTGYNGNMRVYSFLPPSGDIRDFSCDIKDFFNYLERNHGYPAREQNLIVYQVGTECFTGGPARFTCRDFRADLW

Series [1] covers variants of B1. The following applies: Hypocrea jecorina; pH 8; Thermal; CD; Bis-Tris propane ammonium acetate 0.05 M 0.05 M; reversible: No; structure 1H8V; whole UniProt chain shown.
The variants in series [2] derive from B2. As to conditions: Trichocladium griseum; pH 8; Thermal; CD; Bis-Tris propane ammonium acetate 0.05 M 0.05 M; reversible: No; structure 1OLR; whole UniProt chain shown.

The Tm is the temperature at the midpoint of the melting transition. Take P217C V226C G186C: in series [1], the Tm amounted to 54.5 °C and the “change of melting temperature, mutant - wild type (higher = more stable)” value (from here on “change of melting temperature, mutant”) was found to be 0.1 °C.

Regarding V226C, in series [1], the melting temperature (Tm) came to 54.5 °C and the “change of melting temperature, mutant” value was determined as 0.1 °C.

For P217C, in series [1], the Tm amounted to 58.3 °C and the “change of melting temperature, mutant” value is 3.9 °C.

Consider G186C, for which, in series [1], the Tm came out at 56.5 °C and the “change of melting temperature, mutant” value came out at 2.1 °C.

P217C V226C: in series [1], the Tm turned out to be 55.1 °C and the “change of melting temperature, mutant” value worked out at 0.7 °C.

As for G186C P217C, in series [1], the Tm turned out to be 55.1 °C and the “change of melting temperature, mutant” value worked out at 0.7 °C.

On to C236S, for which, in series [2], the midpoint of thermal melting (Tm) was found to be 63.3 °C and the “change of melting temperature, mutant” value was -5.4 °C.

Regarding C236P, in series [2], the midpoint of thermal melting (Tm) was 59.5 °C and the “change of melting temperature, mutant” value was -9.2 °C.

Turning to C205G, in series [2], the Tm was 69.9 °C and the “change of melting temperature, mutant” value is 1.2 °C.

Regarding C205S, in series [2], the melting temperature (Tm) was 68.9 °C and the “change of melting temperature, mutant” value amounted to 0.2 °C.

On to C246V, for which, in series [2], the Tm came to 69.5 °C and the “change of melting temperature, mutant” value came to 0.8 °C.

For the variant C246S, in series [2], the melting temperature (Tm) stood at 63.1 °C and the “change of melting temperature, mutant” value was -5.6 °C.
